Measured values taken from paper doi:10.1101/2021.09.27.462041.

What was measured:
Experiment in all cases: SPR
[1] = target: H3K27me3 11-mer histone H3 tail peptide
[2] = target: H3K36me3 11-mer histone H3 tail peptide
[3] = target: H3K4me3 11-mer histone H3 tail peptide
[4] = target: H3K9me3 11-mer histone H3 tail peptide

B1: DIDO3 PHD domain (domain or fragment)
chain: PNALYCICRQPHNNRFMICCDRCEEWFHGDCVGISEARGRLLERNGEDYICPNCTILQVQ
B1 showed a Kd [1] of 26.5 nM, a Kd [2] of 32.1 nM and a koff [2] of 0.0024 s⁻¹. It also gave a Kd [3] of 25.5 nM, a koff [3] of 0.00238 s⁻¹ and a Kd [4] of 22.2 nM.
